{
  "source": "patent US20080242590A1",
  "about": "“New Method 706” (ASTRAZENECA AB, priority 2007, published 2008)",
  "key": {"[1]": {"system": "amyloid β 1-40 peptide", "test": "Degradation of amyloid β 1-40 peptide by Fc-Neprilysin and Neprilysin in buffer", "type": "biochemical", "details": "enzyme 2.4 μg/ml, Aβ 1-40 300 nM, 2.5 hours at 37° C., buffer", "protocol": "The assay is measuring the remaining amyloid β 1-40 peptide (Bachem) concentration following its incubation in the presence of Neprilysin (R&D Systems) or Fc-Neprilysin with or without Neprilysin inhibitor. 100 μl of reaction mixture containing amyloid β 1-40 peptide (final concentrations, 300, 30 or 3 nM) and/or Neprilysin (2.4 μg/ml), and/or Fc-Neprilysin construct (2.4 μg/ml), and/or Phosphoramidone (10 μM) was incubated in a round bottom 96-well polypropylene plate at 37° C. for 2.5 hours. Following incubation, 10 μl of reaction mixture was transferred into Thermo-Fast© 96-well PCR plate (Abgene, UK) containing 10 μl of Standard Diluent (Gyros AB). Amyloid β 1-40 concentration was determined using Gyrolab Workstation LIF system. Biotinylated anti-amyloid β antibodies (6E10; final concentration 50 μg/ml; Signet) were used as capturing antibodies and polyclonal anti-human amyloid β antibodies (44-348; Biosource) labeled with Alexa Fluor 647 dye (Molecular probes) were used as detection antibodies. Amyloid β 1-40 peptide concentration measurement performed according to the manufacturers protocol using Gyrolab Bioaffy™ Software Package Version 1.8 (Gyros AB). Amyloid β 1-40 peptide degradation by Neprilysin was calculated as a percentage of Amyloid β 1-40 peptide left after incubation in the presence of Neprilysin compared to the amyloid β 1-40 peptide concentration in the absence of Neprilysin."}, "[2]": {"system": "amyloid β peptide 1-40 (Aβ40)", "test": "Ex-vivo degradation of Aβ40 in guinea pig plasma", "type": "biochemical", "details": "5 μg/ml, 4 hours, 37° C.", "protocol": "Degradation of amyloid β peptide 1-40 (Aβ40) and amyloid β peptide 1-42 (Aβ42) by neprilysin was investigated using heparinized plasma from male Dunkin Hartley guinea pigs, weighing 250-300 g (HBLidkoping ka). Blood was withdrawn from anaesthetized guinea pigs by heart puncture. The blood were collected into prechilled heparin-plasma tubes and centrifuged for 10 min at 4° C. at 3000×g within 20 minutes of sampling. Plasma samples were transferred to pre-chilled polypropylene tubes and immediately frozen on dry ice and stored at −70° C. prior to use. The experiments were performed on a pool of plasma from seven guinea pigs. His-Fc-Nep (6 μg/ml or 208 μg/ml) or 5 μg/ml recombinant human Neprilysin (R&D systems) with corresponding vehicles (50 mM Tris-HCl, 150 mM NaCl pH 7.5 or 25 mM Tris-HCl, 0.1 M NaCl pH 8.0) were incubated with a pool of plasma in presence or absence of 10 μM phosphoramidon (BIOMOL) at 37° C. for 0 and 4 h. A final concentration of 4.7 mM EDTA was added into the tubes before the amount of Aβ40 and Aβ42 was analysed using a commercial ELISA kit obtained from Biosource (Aβ1-40) or Innogenetics (Aβ1-42)."}, "[3]": {"system": "amyloid β peptide 1-40 (Aβ40)", "test": "Degradation of Aβ40 in human plasma (Example 18)", "type": "biochemical", "details": "5 μg/ml, 4 hours, 37° C.", "protocol": "Blood from eight individuals (5 females and 3 males) were collected into pre-chilled heparin-plasma tubes at the healthcare centre (AstraZeneca) at two different time points. Plasma was prepared by centrifugation for 20 min at 4° C. at 2500×g within 30 minutes of sampling. Plasma samples were transferred to pre-chilled polypropylene tubes and immediately frozen and stored at −70° C. prior to use. His-Fc-Nep (6 μg/ml) or 5 μg/ml recombinant human Neprilysin (R&D systems) with corresponding vehicles (50 mM Tris-HCl, 150 mM NaCl pH 7.5 or 25 mM Tris-HCl, 0.1 M NaCl pH 8.0) in presence or absence of 10 μM phosphoramidon was incubated with a pool of plasma at 37° C. for 0 and 4 h. A final concentration of 4.7 mM EDTA was added into the tubes before the amount of Aβ40 was analysed using a commercial ELISA kit obtained from Biosource. His-Fc-Nep (6 μg/ml) and commercial human recombinant neprilysin (5 μg/ml) degraded Aβ40 with 33% and 70%, respectively, compared to vehicle after 4 hours incubation at 37° C. The Aβ40 levels were unaffected after addition of 10 μM phosphoramidon (FIG. 4)."}, "[4]": {"test": "Pharmacokinetics of Fc-Nep and commercial neprilysin, single i.v. dose (Example 20)", "type": "in vivo", "details": "mice, single i.v. dose 1 mg/kg", "protocol": "The Fc-Nep fusion protein was developed to improve the pharmacokinetic entities of neprilysin with the specific aims to reduce clearance and improve half-life. To test this we have administrated a single i.v. dose of either 1 mg/kg commercial neprilysin or 1 alternatively 5 mg/kg in-house produced Fc-Nep to mice. At set times after dosing blood samples were drawn from the tail vein or by heart puncture at termination. Upon sampling into tubes containing EDTA the aliquots were put on ice. Plasma was prepared by centrifugation within 15 minutes of sampling (typically 1500 g at 4° C. for 10 min) and immediately frozen. Plasma concentrations of Fc-Nep and neprilysin were determined via immunoassays using either anti-Nep for commercial neprilysin or anti-human IgG for Fc-Nep as capture antibodies while both substances were detected via an anti-Nep antibody. Pharmacokinetic parameters are calculated using a software package (WinNonlin, Pharsight Corporation, USA) and in this example experiment the calculated half-life had increased from about 5 minutes for Nep to about 20 hours for Fc-Nep."}, "[5]": {"test": "Pharmacokinetics of Fc-Nep and in-house produced Neprilysin, single i.v. dose (Example 27)", "type": "in vivo", "details": "mice, single i.v. dose 10 or 50 nmol enzyme/kg", "protocol": "The Fc-Nep fusion protein was developed to improve the pharmacokinetic entities of neprilysin with the specific aims to reduce clearance and improve half-life. To test this we have administrated a single i.v. dose of 10 or 50 nmol enzyme/kg body weight neprilysin (Nep) or Fc-Nep (1 and 5 mg/kg) to mice. At set times the dose blood samples were drawn from the tail vein or by heart puncture at termination. Upon sampling into tubes containing EDTA the aliquots were put on ice. Plasma was prepared by centrifugation within 15 minutes of sampling (typically 1500 g at 4° C. for 10 min) and immediately frozen. Plasma concentrations of Nep and Fc-Nep were determined via immunoassays using either anti-Nep for Nep or anti-human IgG for Fc-Nep as capture antibodies while both substances were detected via an anti-Nep antibody. Pharmacokinetic parameters are calculated using a software package (WinNonlin, Pharsight Corporation, USA) and in this example experiment the calculated half-life had increased from about 1 day for Nep to about 2.5 weeks for Fc-Nep."}},
  "data": [
    {"molecule": "Recombinant human Neprilysin: commercially available Recombinant Human Neprilysin (R&D Systems), positive control (protein) YDDGICKSSDCIKSAARLIQNMDATTEPCTDFFKYACGGWLKRNVIPETSSRYGNFDILRDELEVVLKDVLQEPKTEDIVAVQKAKALYRSCINESAIDSRGGEPLLKLLPDIYGWPVATENWEQKYGASWTAEKAIAQLNSKYGKKVLINLFVGTDDKNSVNHVIHIDQPRLGLPSRDYYECTGIYKEACTAYVDFMISVARLIRQEERLPIDENQLALEMNKVMELEKEIANATAKPEDRNDPMLLYNKMTLAQIQNNFSLEINGKPFSWLNFTNEIMSTVNISITNEEDVVVYAPEYLTKLKPILTKYSARDLQNLMSWRFIMDLVSSLSRTYKESRNAFRKALYGTTSETATWRRCANYVNGNMENAVGRLYVEAAFAGESKHVVEDLIAQIREVFIQTLDDLTWMDAETKKRAEEKALAIKERIGYPDDIVSNDNKLNNEYLELNYKEDEYFENIIQNLKFSQSKQLKKLREKVDKDEWISGAAVVNAFYSSGRNQIVFPAGILQPPFFSAQQSNSLNYGGIGMVIGHEITHGFDDNGRNFNKDGDLVDWWTQQSASNFKEQSQCMVYQYGNFSWDLAGGQHLNGINTLGENIADNGGLGQAYRAYQNYIKKNGEEKLLPGLDLNHKQLFFLNFAQVWCGTYRPEYAVNSIKTDVHSPGNFRIIGTLQNSAEFSEAFHCRKNSYMNPEKKCRVW", "values": [
      {"measurement": "Amyloid β 1-40 peptide degraded", "setting": "[1]", "value": 64, "unit": "%"},
      {"measurement": "Aβ40 degraded compared to vehicle", "setting": "[2]", "value": 49, "unit": "%"},
      {"measurement": "Aβ40 degraded compared to vehicle", "setting": "[3]", "value": 70, "unit": "%"},
      {"measurement": "calculated half-life", "setting": "[4]", "value": "about 5 minutes"}
    ]},
    {"molecule": "Nep: in-house produced Neprilysin (extra-cellular domain only), without Fc (protein, UniProt P08473 52-750, looked up, extracellular domain, in-house produced Neprilysin (extra-cellular domain only), without Fc) extracellular domain: YDDGICKSSDCIKSAARLIQNMDATTEPCTDFFKYACGGWLKRNVIPETSSRYGNFDILRDELEVVLKDVLQEPKTEDIVAVQKAKALYRSCINESAIDSRGGEPLLKLLPDIYGWPVATENWEQKYGASWTAEKAIAQLNSKYGKKVLINLFVGTDDKNSVNHVIHIDQPRLGLPSRDYYECTGIYKEACTAYVDFMISVARLIRQEERLPIDENQLALEMNKVMELEKEIANATAKPEDRNDPMLLYNKMTLAQIQNNFSLEINGKPFSWLNFTNEIMSTVNISITNEEDVVVYAPEYLTKLKPILTKYSARDLQNLMSWRFIMDLVSSLSRTYKESRNAFRKALYGTTSETATWRRCANYVNGNMENAVGRLYVEAAFAGESKHVVEDLIAQIREVFIQTLDDLTWMDAETKKRAEEKALAIKERIGYPDDIVSNDNKLNNEYLELNYKEDEYFENIIQNLKFSQSKQLKKLREKVDKDEWISGAAVVNAFYSSGRNQIVFPAGILQPPFFSAQQSNSLNYGGIGMVIGHEITHGFDDNGRNFNKDGDLVDWWTQQSASNFKEQSQCMVYQYGNFSWDLAGGQHLNGINTLGENIADNGGLGQAYRAYQNYIKKNGEEKLLPGLDLNHKQLFFLNFAQVWCGTYRPEYAVNSIKTDVHSPGNFRIIGTLQNSAEFSEAFHCRKNSYMNPEKKCRVW", "values": [
      {"measurement": "calculated half-life", "setting": "[5]", "value": "about 1 day"}
    ]}
  ]
}
